Assay [1] concerns the target T1, mature human GDF8 (growth and differentiation factor-8, myostatin) (human, UniProt O14793 267-375).
T1 construct: Recombinant mature GDF8 dimer purified from CHO cell conditioned media; It was biotinylated (Sulfo-NHS-Biotin) in the direct ELISA, the BIAcore work and the ActRIIB plate assay, and unlabeled in the sandwich ELISAs; In the peptide array Cys was replaced by Ser; also called mature GDF-8; GDF-8 dimer
Put plainly: soluble ActRIIB as competitor: inhibition of the binding of biotinylated GDF8 (20 ng/ml) to plate-coated ActRIIB-Fc; axis OD 450 nm.

Assay [2] concerns the target T1, mature human GDF8 (growth and …). Kind of assay: BIAcore 2000, RK22 (lot PK1901, activity 82.54 %) over biotinylated GDF-8 on Sensor Chip SA; 42.4 RU (6.14.03), Langmuir model (global analysis), Rmax 39.4, Chi2 3.67. (In general: Surface plasmon resonance follows binding to a sensor surface in real time, without labels.)
For assay [3] the target is unchanged. Put plainly: BIAcore 2000, RK22 (lot PK1901, activity 82.54 %) over biotinylated GDF-8 on Sensor Chip SA; 45 RU (4.30.03), Langmuir model (global analysis), Rmax 84.00, Chi2 2.12.
The target is the same in assay [4]. Kind of assay: BIAcore 2000, RK22 over biotinylated GDF-8 on Sensor Chip SA; Langmuir model (global analysis), row Average of three independent experiments.
Assay [5] shares this target. Put plainly: SPR (BIAcore 2000), biotinylated GDF-8 on streptavidin chip, antibody 2.3-300 nM in solution.
Assay [6] has the same target. Put plainly: sandwich ELISA: RK22 coated, GDF-8 titrated, biotinylated RK35 as detector, in THST; the concentration is that of GDF-8. Background: An ELISA detects its analyte on a solid surface through an enzyme-linked reagent.
The target is the same in assay [7]. Put plainly: BIAcore 2000, RK22 (lot PK1901, activity 82.54 %) over biotinylated GDF-8 on Sensor Chip SA; 71 RU (2.6.03), Langmuir model (global analysis), Rmax 44.00, Chi2 7.47.
For assay [8] the target is unchanged. Kind of assay: BIAcore 2000, RK22 (lot PK1901, activity 82.54 %) over biotinylated GDF-8 on Sensor Chip SA; 42.4 RU (6.14.03), Bivalent model (global analysis), ka1/kd1, Rmax 49.2, Chi2 0.299.
The target is the same in assay [9]. Put plainly: cell-based or functional assay.
For assay [10] the target is unchanged. Kind of assay: BIAcore 2000, RK22 over biotinylated GDF-8 on Sensor Chip SA; Bivalent model (global analysis), ka1/kd1, row Average of three independent experiments.
Assay [11] shares this target. Kind of assay: ELISA: antibody titrated on biotinylated GDF8 held on a streptavidin plate (title SA/BIO GDF8 BINDING ELISA), OD 450 nm.
A further assay addresses T2, mature BMP11 (human, UniProt O95390 299-407).
T2 construct: mature; it is not certain that 'human' covers BMP11; It was biotinylated in the ELISA; also called biotinylated BMP11
Put plainly: ELISA: antibody titrated on biotinylated BMP11 held on a streptavidin plate (title SA/BIO BMP11 ELISA), OD 450 nm.

The target of assay [12] is T1, mature human GDF8 (growth and …). Put plainly: BIAcore 2000, RK22 (lot PK1901, activity 82.54 %) over biotinylated GDF-8 on Sensor Chip SA; 45 RU (4.30.03), Bivalent model (global analysis), ka1/kd1, Rmax 84.00, Chi2 1.29.
For assay [13] the target is unchanged. Kind of assay: BIAcore 2000, RK22 (lot PK1901, activity 82.54 %) over biotinylated GDF-8 on Sensor Chip SA; 71 RU (2.6.03), Bivalent model (global analysis), ka1/kd1, Rmax 53.00, Chi2 0.84.
Assay [14] shares this target. Put plainly: inhibition of the binding of biotinylated GDF8 (20 ng/ml), preincubated with the titrated protein, to plate-coated ActRIIB-Fc; axis OD 450 nm.

T2 sequence (O95390 299-407): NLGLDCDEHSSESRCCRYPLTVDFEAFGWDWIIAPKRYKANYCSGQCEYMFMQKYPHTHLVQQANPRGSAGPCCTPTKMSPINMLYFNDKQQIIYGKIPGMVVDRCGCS

B1: Recombinant ActRIIB-Fc chimera (R&D Systems, Cat. No. 339-RB/CF) (Fc fusion)
chain: SGRGEAETRECIYYNANWELERTNQSGLERCEGEQDKRLHCYASWRNSSGTIELVKKGCWLDDFNCYDRQECVATEENPQVYFCCCEGNFCNERFTHLPEAGGPEVTYEPPPTAPT
notes: Bought construct; also called ActRIIB fusion protein; ActIIRB; Fc part of the bought chimera not given
As to B1, the “IC50 (read off the curve)” value in assay [1] is roughly 300 pM.

B2: RK22 murine monoclonal anti-GDF8 antibody (antibody, V domains shown)
VH: QVQLQQSGAELARPGASVKLSCKASGYTFTSYWMQWVKQRPGQGLEWIGAIYPGDGDTRYTQKFKGKATLTADKSSSTAYMQLSSLASEDSAVYYCARMGGYDRYYFDYWGQGTTLTVSS
VL: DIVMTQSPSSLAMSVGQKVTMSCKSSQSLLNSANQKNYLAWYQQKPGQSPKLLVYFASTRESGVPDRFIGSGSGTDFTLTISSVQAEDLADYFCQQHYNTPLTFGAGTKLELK
notes: Mouse monoclonal from a hybridoma (GDF8 knockout mice); It was biotinylated when used as the ELISA detector; also called RK22 antibody; biotinylated RK22
The term koff denotes the rate constant with which the complex falls apart. Lower therefore signals slow dissociation. As usually defined, the kon is the rate constant with which the complex forms. The low end stands for slower complex formation, the high end for faster complex formation. A word on the EC50 (read off the curve): it is the concentration that produces a half-maximal response. What is called EC50 is the concentration needed to bring the measured effect to its halfway point. In the case of B2, the Ka turned out to be 3.24e+08 M⁻¹ in [2]; 7.28e+07 M⁻¹ in assay [3]; 2.18e+08 M⁻¹ in assay [4]; 2.58e+08 M⁻¹ in assay [7]; 1.09e+08 M⁻¹ in [8]; 8.44e+07 M⁻¹ in [10]. For the same molecule, the Ka worked out at 3.67e+07 M⁻¹ in [12] and 1.07e+08 M⁻¹ in assay [13]. The Kd amounted to 3.09 nM in assay [2]; 13.7 nM in assay [3]; 6.89 nM in [4]; 7 nM in assay [5]; 3.88 nM in assay [7]; 9.14 nM in [8]. Moreover, the Kd in assay [10] is 15.2 nM; in assay [12] it was 27.3 nM; in assay [13], 9.33 nM. Further, the koff in [2] is 0.000482 s⁻¹; in assay [3], 0.000633 s⁻¹; in [4] it was 0.000562 s⁻¹; in assay [7], 0.000572 s⁻¹; in assay [8], 0.000714 s⁻¹; in assay [10], 0.000708 s⁻¹. The off-rate constant (koff) in assay [12] amounted to 0.00063 s⁻¹; in assay [13] it was 0.00078 s⁻¹. Also, the kon in [2] turned out to be 156000 M⁻¹ s⁻¹; in assay [3], 46100 M⁻¹ s⁻¹; in assay [4], 116000 M⁻¹ s⁻¹; in assay [7], 147000 M⁻¹ s⁻¹; in assay [8], 78100 M⁻¹ s⁻¹; in [10], 61600 M⁻¹ s⁻¹. The kon in [12] was 23100 M⁻¹ s⁻¹; in assay [13], 83600 M⁻¹ s⁻¹. In addition, the “EC50 (read off the curve)” value in assay [6] was roughly 300 pg/mL. For the same molecule, the “IC50, pGL3(CAGA)12 luciferase reporter in A204 cells treated with 10 ng/ml GDF8” value in assay [9] worked out at 0.4 nM. Besides, the EC50 in assay [11] was determined as 0.193 µg/mL; with mature BMP11, 61.2 µg/mL.

B3: MYO-029 human IgG1 anti-GDF-8 antibody (antibody, V domains shown)
VH: QVQLVQSGAEVKKPGASVKVSCKASGYTFTSYYMHWVRQAPGQGLEWMGIINPSGGSTSYAQKFQGRVTMTRDTSTSTVYMELSSLRSEDTAVYYCARDENWGFDPWGQGTLVTVSS
VL: SYELTQPPSVSVSPGQTATITCSGHALGDKFVSWYQQGSGQSPVLVIYDDTQRPSGIPGRFSGSNSGNTATLTISGTQAMDEADYFCQAWDSSFVFGGGTKVTVL
For B3, the “IC50 (read off the curve)” value in [14] was roughly 300 pM.

The values are drawn from patent publication US20090148436A1 (Pfizer, published 2009).
